Data reported in patent US20190328899A1 (HEIDELBERG PHARMA RESEARCH, published 2019).

Key:
[1] = target: B-Cell maturation antigen (BCMA) on BCMA-expressing multiple myeloma cell lines (human) (UniProt Q02223); assay: cell-based or functional assay
[2] = target: T1, B-Cell maturation antigen (BCMA) on BCMA-expressing multiple myeloma cell lines (human, UniProt Q02223 1-184); assay: cell-based or functional assay
T1 sequence (looked up): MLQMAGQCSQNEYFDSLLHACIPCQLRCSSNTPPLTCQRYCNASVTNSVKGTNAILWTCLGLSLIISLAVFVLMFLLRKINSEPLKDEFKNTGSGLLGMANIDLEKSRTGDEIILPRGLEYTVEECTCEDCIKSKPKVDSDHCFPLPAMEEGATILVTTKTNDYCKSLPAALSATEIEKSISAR

[3] = target: T1, B-Cell maturation antigen (BCMA) on …; assay: cell-based or functional assay; remark: listed apart in the source
[4] = target: T1, B-Cell maturation antigen (BCMA) on …; assay: flow cytometry-binding assay on MM.1S Luc and NCI-H929 cells

Molecule	cytotoxic potential EC50, KMS-11 cells, 96 h [1] [nM]	cytotoxic potential EC50, MM.1S Luc cells, 96 h [1] [nM]	cytotoxicity EC50 [M], MM.1S Luc cells, 96 h [2] [M]	cytotoxicity EC50 [M], MM.1S cells, 96 h [2] [M]	cytotoxicity EC50 [M], NCI-H929 cells, 96 h [2] [M]	cytotoxicity EC50 [M], OPM-2 cells, 96 h [2] [M]	cytotoxicity EC50 [M], U266B1 cells, 96 h [2] [M]	cytotoxic potential EC50, KMS-11 cells, 96 h [3] [nM]	cytotoxic potential EC50, MM.1S Luc cells, 96 h [3] [nM]	binding result [4]
monomethyl auristatin F derivative J22.9-ISY-MMAF (antibody)	0.626	0.481	–	–	–	–	–	–	–	–
J22.9-ISY-D265C-30.1699 (antibody, V domains shown, alpha-amanitin-linker HDP 30.1699 (cathepsin B cleavable linker, maleimide) on the engineered Cys 265) VH: EVQLVESGGGLVQPGGSLRLSCAASGFTFSRYWISWVRQAPGKGLVWVGEINPSSSTINYAPSLKDKFTISRDNAKNTLYLQMNSLRAEDTAVYYCASLYYDYGDAYDYWGQGTLVTVSS VL: EIVMTQSPATLSVSPGERATLSCKASQSVESNVAWYQQKPGQAPRALIYSASLRFSGIPARFSGSGSGTEFTLTISSLQSEDFAVYYCQQYNNYPLTFGAGTKLELKR	–	–	6.5e-11	1.7e-10	7e-11	7.9e-09	7.3e-11	–	–	–
amanitin-conjugate J22.9-ISY-D265C-30.2115 (antibody, V domains shown, amatoxin-linker HDP 30.2115 (cathepsin B cleavable linker, maleimide) on the engineered Cys 265) VH: EVQLVESGGGLVQPGGSLRLSCAASGFTFSRYWISWVRQAPGKGLVWVGEINPSSSTINYAPSLKDKFTISRDNAKNTLYLQMNSLRAEDTAVYYCASLYYDYGDAYDYWGQGTLVTVSS VL: EIVMTQSPATLSVSPGERATLSCKASQSVESNVAWYQQKPGQAPRALIYSASLRFSGIPARFSGSGSGTEFTLTISSLQSEDFAVYYCQQYNNYPLTFGAGTKLELKR	–	–	2.3e-10	2.9e-10	9.7e-11	1.4e-07	1.4e-10	1.72	0.557	–
Thiomab antibody J22.9-ISY-D265C (antibody, human IgG1, kappa, V domains shown, Unconjugated antibody; also called thiomab J22.9-ISY-D265C) VH: EVQLVESGGGLVQPGGSLRLSCAASGFTFSRYWISWVRQAPGKGLVWVGEINPSSSTINYAPSLKDKFTISRDNAKNTLYLQMNSLRAEDTAVYYCASLYYDYGDAYDYWGQGTLVTVSS VL: EIVMTQSPATLSVSPGERATLSCKASQSVESNVAWYQQKPGQAPRALIYSASLRFSGIPARFSGSGSGTEFTLTISSLQSEDFAVYYCQQYNNYPLTFGAGTKLELKR	–	–	–	–	–	–	–	–	–	binds
